From patent US20170052184A1 (published 2017)
Ends that are not written are not given here.

What was measured:
[1] = molecular target: T1, WT1STHV biotin labeled HCV core peptide (hepatitis C virus, biotin labeled); assay: EIA; Ab 125 ng/mL captured on anti-mouse Fc; bt-peptide 500 ng/mL
T1 peptide: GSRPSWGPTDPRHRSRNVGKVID

[2] = molecular target: T2, Mut1T110N biotin labeled HCV core peptide (hepatitis C virus, biotin labeled); assay: as above
T2 peptide: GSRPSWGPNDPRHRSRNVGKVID

[3] = molecular target: T3, Mut6T110S biotin labeled HCV core peptide (hepatitis C virus); assay: as above
[4] = molecular target: T4, C113WT biotin labeled HCV core peptide (hepatitis C virus, also: biotin labeled, position not given here); assay: as above
T4 peptide: RGSRPSWGPTD

[5] = molecular target: T5, C113T109N biotin labeled HCV core peptide (hepatitis C virus, also: biotin labeled, position not given here); assay: as above
T5 peptide: RGSRPSWGPND

[6] = molecular target: T1, WT1STHV biotin labeled HCV core peptide; assay: EIA; Ab 250 ng/mL captured on anti-mouse Fc; bt-peptide 500 ng/mL
[7] = molecular target: T2, Mut1T110N biotin labeled HCV core …; assay: as above
[8] = molecular target: T3, Mut6T110S biotin labeled HCV core …; assay: as above
[9] = molecular target: T4, C113WT biotin labeled HCV core peptide; assay: as above
[10] = molecular target: T5, C113T109N biotin labeled HCV core …; assay: as above
[11] = molecular target: T1, WT1STHV biotin labeled HCV core peptide; assay: EIA; Ab 1000 ng/mL captured on anti-mouse Fc; bt-peptide 500 ng/mL
[12] = molecular target: T2, Mut1T110N biotin labeled HCV core …; assay: as above
[13] = molecular target: T3, Mut6T110S biotin labeled HCV core …; assay: as above
[14] = molecular target: T4, C113WT biotin labeled HCV core peptide; assay: as above
[15] = molecular target: T5, C113T109N biotin labeled HCV core …; assay: as above
[16] = molecular target: T1, WT1STHV biotin labeled HCV core peptide; assay: EIA; Ab 62.5 ng/mL captured on anti-mouse Fc; bt-peptide 500 ng/mL
[17] = molecular target: T2, Mut1T110N biotin labeled HCV core …; assay: as above
[18] = molecular target: T3, Mut6T110S biotin labeled HCV core …; assay: as above
[19] = molecular target: T4, C113WT biotin labeled HCV core peptide; assay: as above
[20] = molecular target: T5, C113T109N biotin labeled HCV core …; assay: as above
[21] = molecular target: T4, C113WT biotin labeled HCV core peptide; assay: EIA; Ab 0.977 ng/mL captured on anti-mouse Fc; bt-peptide 500 ng/mL
[22] = molecular target: T5, C113T109N biotin labeled HCV core …; assay: as above
[23] = molecular target: T1, WT1STHV biotin labeled HCV core peptide; assay: EIA; Ab 1.953 ng/mL captured on anti-mouse Fc; bt-peptide 500 ng/mL
[24] = molecular target: T2, Mut1T110N biotin labeled HCV core …; assay: as above
[25] = molecular target: T3, Mut6T110S biotin labeled HCV core …; assay: as above
[26] = molecular target: T4, C113WT biotin labeled HCV core peptide; assay: as above
[27] = molecular target: T5, C113T109N biotin labeled HCV core …; assay: as above

B1: HCV Neo4 monoclonal antibody (antibody, V domains shown)
VH: QIQLKESGPAVIKPSQSLSLTCIVSGFSITSSVYCWQWIRQPPGKGLEWMGRICYDGSVDYSPSITSRGTISRDTSLNKVFFQLSSVTNEDTAMYYCSRENHIDYYDTTYPSFDVWGAGTTVTVSS
VL: DIVLTQSPASLIVSLGQRATISCRASKSVNEYGYTYMHWYQQKPGLPPKLLIYLASNLDSGVPARFSGSGSGTDFTLNIHPVEEEDAATYYCQHSRELPYTFGGGTKLEIKR
- signal at 492 nm [1]: 1.93 OD 492 nm
- signal at 492 nm [2]: 0.204 OD 492 nm
- signal at 492 nm [3]: 1.27 OD 492 nm
- signal at 492 nm [4]: 0.0599 OD 492 nm
- signal at 492 nm [5]: 0.0858 OD 492 nm
- signal at 492 nm [6]: 1.99 OD 492 nm
- signal at 492 nm [7]: 0.089 OD 492 nm
- signal at 492 nm [8]: 1.15 OD 492 nm
- signal at 492 nm [9]: 0.0607 OD 492 nm
- signal at 492 nm [10]: 0.111 OD 492 nm
- signal at 492 nm [11]: 2 OD 492 nm
- signal at 492 nm [12]: 0.0678 OD 492 nm
- signal at 492 nm [13]: 1.17 OD 492 nm
- signal at 492 nm [14]: 0.222 OD 492 nm
- signal at 492 nm [15]: 0.0591 OD 492 nm
- signal at 492 nm [16]: 1.85 OD 492 nm
- signal at 492 nm [17]: 0.139 OD 492 nm
- signal at 492 nm [18]: 1.11 OD 492 nm
- signal at 492 nm [19]: 0.0626 OD 492 nm
- signal at 492 nm [20]: 0.111 OD 492 nm
- signal at 492 nm [21]: 0.0584 OD 492 nm
- signal at 492 nm [22]: 0.0784 OD 492 nm
- signal at 492 nm [23]: 0.409 OD 492 nm
- signal at 492 nm [24]: 0.0728 OD 492 nm
- signal at 492 nm [25]: 0.0717 OD 492 nm
- signal at 492 nm [26]: 0.0765 OD 492 nm
- signal at 492 nm [27]: 0.0853 OD 492 nm
